Data on five sequences can be found in publication PMC3836757.

The target of data set [1] is RNA polymerase core enzyme;sigma 70 (RpoD) (Escherichia coli;Ehrlichia chaffeensis) (UniProt P0A7Z4+P0A8V2+P0A8T7+P0A800+Q2GG75). Nature of the data set: EMSA. The conditions noted are these: 50 mM Tris-acetate pH 8.0, 50 mM K-acetate, 8.1 mM Mg-acetate, 27 mM NH4-acetate, 100 ug/ml BSA, 5% glycerol, 50 ug/ml poly(dI-dC), 20 fmol each probe and RNAP …. (In EMSA bound probe runs differently from free probe, usually more slowly.)

The target in data set [2] is RNA polymerase core enzyme;sigma 32 (RpoH) (Escherichia coli;Ehrlichia chaffeensis) (UniProt P0A7Z4+P0A8V2+P0A8T7+P0A800+Q2GGG9). The data set is described as follows: EMSA. Particulars: 50 mM Tris-acetate pH 8.0, 50 mM K-acetate, 8.1 mM Mg-acetate, 27 mM NH4-acetate, 100 ug/ml BSA, 5% glycerol, 50 ug/ml poly(dI-dC), 20 fmol each probe and RNAP ….

Take “AAGCAAGTCTACTCATATTTTTATTAATTAAGTAGTAAAGTTAACTATAGATTTTATTAAAATTTTTATTCTAATCACTTTAAATATCAATTACTTTTGTTGTAAATTTGAAAGAAATTTTATATTCTAGACTTGCTTTTCTTTATTTCTTTCATTATTCTTAAATTTTTATTATCTTTTATAAAAGGTTTATTAACATG (double strand) [p28-Omp14 promoter probe]”: the binding result in data set [1] was “binds”; in data set [2], “binds more weakly”. The corresponding values for “ATTGCAGATTAATTAATAATGCTTTAAGTAATAACAAATAAATTTAGTTGACTATATGAACTAACCTAATATCCTAAATCTTGTTCAGTTATGTAAAATTAGGAGTTAAAATTA (double strand) [hup promoter probe]” are “binds” and “binds more weakly”. The corresponding values for “CTGACGTAATATATTAAATTTTCCTTACAAAAGTTACCGATATTTTATACAAAAATTTATATTCTGACTTGCTTTTATATGACACTTCTACTATTGTTAATTTATTTGTCACTATTAGGTTATATATGAATTACA (double strand) [p28-Omp19 promoter probe]” are “binds” and “binds more weakly”.

As for “TAACTTACTTAAAAAATTAACTACTTAAATATCAACGATGTTTTCAGTATCAAGTCAATTGATTTTTTATGTGTTATGTAAACTGTTACAGAGTAATATAATATTTCTACTGGGTCCTATAAAGTTCTAACCTTGTAAACATTTGTGCAATATGTATTATAAAATTTATTGATTGATACTTGAAATTAGATTTCTTGATATTATATATGATCTTAGCTAGTAGTATCTGATGCTACTGATAATTTATTTTTTTATAGAGGTAG (double strand) [groE promoter probe]”, the binding result in data set [2] is on record as “binds”. Consider “TTCATAAATTTATGAACTTGTGTTAAATGGGGTTGTAATCTTATGATTTGGTTATTATATCTGTGATTATAGTTTTGATTTTTATGTAAGGGGGCTATTTATGGCTGTTATAGGTATAGATTTAGGTAC (double strand) [dnaK promoter probe]”, for which the binding result in data set [2] is recorded as “binds”.
